Here are results for 13 molecules from US20190112365A1 (EISAI R AND D MANAGEMENT, published 2019).

The chains are these.
B1: 7G6-HCzu1-LCzu1 (antibody, human IgG1, kappa, V domains shown)
VH: QVQLVQSGAEVKKPGASVKVSCKASGYTFTTYWITWVRQAPGQGLEWMGDIYPGSSICNYNEKFKSRVTMTRDTSTSTVYMELSSLRSEDTAVYYCAREDGYDAWFAYWGQGTLVTVSS
VL: DVVMTQSPLSLPVTLGQPASISCRSSQSILHSNGNTYLEWFQQRPGQSPRRLIYKVSNRFSGVPDRFSGSGSGTDFTLKISRVEAEDVGVYYCFQGSHVPFTFGQGTKLEIKR
notes: humanized, human IgG1 kappa
B2: 7G6-HCzu1-LCzu2 (antibody, human IgG1, kappa, V domains shown)
VH: B1 VH
VL: B1 VL with F41Y, R51L, Y54C
notes: humanized, human IgG1 kappa
B3: 7G6-HCzu3-LCzu6 (antibody, human IgG1, kappa, V domains shown)
VH: B1 VH with R72V, V79A
VL: B1 VL with F41Y, R51L, Y54S
notes: humanized, human IgG1 kappa
B4: 7G6-HCzu2-LCzu1 (antibody, human IgG1, kappa, V domains shown)
VH: B1 VH with R72V
VL: B1 VL
notes: humanized, human IgG1 kappa
B5: 7G6-HCzu5-LCzu8 (antibody, human IgG1, kappa, V domains shown)
VH: B1 VH with C58S, R72V, V79A
VL: B1 VL with L30V, Y54S
notes: humanized, human IgG1 kappa
B6: 7G6-HCzu3-LCzu2 (antibody, human IgG1, kappa, V domains shown)
VH: B1 VH with R72V, V79A
VL: B1 VL with F41Y, R51L, Y54C
notes: humanized, human IgG1 kappa
B7: 7G6-HCzu2-LCzu2 (antibody, human IgG1, kappa, V domains shown)
VH: B1 VH with R72V
VL: B1 VL with F41Y, R51L, Y54C
notes: humanized, human IgG1 kappa
B8: 7G6-HCzu4-LCzu1 (antibody, human IgG1, kappa, V domains shown)
VH: B1 VH with N61A, E62Q, K65Q, S66G, R72V, V79A
VL: B1 VL
notes: humanized, human IgG1 kappa
B9: 7G6-HCzu5-LCzu7 (antibody, human IgG1, kappa, V domains shown)
VH: B1 VH with C58S, R72V, V79A
VL: B1 VL with Y54S
notes: humanized, human IgG1 kappa
B10: 7G6-HCzu4-LCzu2 (antibody, human IgG1, kappa, V domains shown)
VH: B1 VH with N61A, E62Q, K65Q, S66G, R72V, V79A
VL: B1 VL with F41Y, R51L, Y54C
notes: humanized, human IgG1 kappa
B11: 7G6-HCzu3-LCzu1 (antibody, human IgG1, kappa, V domains shown)
VH: B1 VH with R72V, V79A
VL: B1 VL
notes: humanized, human IgG1 kappa
B12: 7G6-HCzu5-LCzu6 (antibody, human IgG1, kappa, V domains shown)
VH: B1 VH with C58S, R72V, V79A
VL: B1 VL with F41Y, R51L, Y54S
notes: humanized, human IgG1 kappa
B13: 7G6-HCzu5-LCzu2 (antibody, human IgG1, kappa, V domains shown)
VH: B1 VH with C58S, R72V, V79A
VL: B1 VL with F41Y, R51L, Y54C
notes: humanized, human IgG1 kappa

Where a chain is given by its changes, count along the chain named.

T1 sequence (P10636 other isoform, or with tags, fused parts or gaps limits assumed): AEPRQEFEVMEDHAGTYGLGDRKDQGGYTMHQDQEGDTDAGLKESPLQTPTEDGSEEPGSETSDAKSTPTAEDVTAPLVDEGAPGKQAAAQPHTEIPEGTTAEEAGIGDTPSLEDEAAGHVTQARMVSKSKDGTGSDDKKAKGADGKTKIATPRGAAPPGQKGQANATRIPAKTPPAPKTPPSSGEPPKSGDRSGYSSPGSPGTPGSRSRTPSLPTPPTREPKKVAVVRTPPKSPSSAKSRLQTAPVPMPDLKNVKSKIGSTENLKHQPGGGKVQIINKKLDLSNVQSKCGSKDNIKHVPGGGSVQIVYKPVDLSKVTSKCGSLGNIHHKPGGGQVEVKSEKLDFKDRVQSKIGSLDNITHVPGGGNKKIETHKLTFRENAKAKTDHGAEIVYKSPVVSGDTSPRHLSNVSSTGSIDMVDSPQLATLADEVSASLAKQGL

The test has as its target T1, Human Tau 2N4R, wild type, recombinant full length (human, UniProt P10636 2-758).
T1 construct: Full length 2N4R isoform; monomer in SPR and ELISA; heparin-induced aggregates or seeds in the functional assays; also called Tau441; Tau-441
Kind of test: SPR BIAcore, mAb captured by anti-human IgG, Tau flowed, 1:1 Langmuir. On the procedure: All experiments were performed using a BIAcore™ T-100 instrument (GE Healthcare). 10 μL anti-human IgG (monoclonal mouse anti-human Fc) from human antibody capture kit (GE Healthcare) was diluted to 25 μL/mL in 200 μL final immobilization buffer (10 mM sodium acetate, pH 5.0). The flow rate was set to 5 μL/min, flowpath 1. Fifty μL N-hydroxysuccinamide (NETS) and 50 μL 1-ethyl-3-(3-dimethylaminopropyl) carbidiimide (EDC) were mixed and injected for 420 sec to activate the CM5 chip surface. The diluted antibody was injected for 360 seconds followed by 1 M ethanolamine for 420 seconds. The flowpath was then switched to flowpath 2. A new EDC/NHS mixture was prepared and the procedure was repeated for flow cell 2. The surface was conditioned by 2 injections of 30 sec using flowpath 1, 2 at 30 μL/min of 3M MgCl₂. For the anti-mouse surface, 10 μL anti-mouse IgG (polyclonal rabbit anti-mouse IgG) from mouse antibody capture kit (GE Healthcare) was diluted to 30 μL/mL in 324 μL final immobilization buffer (10 mM sodium acetate, pH 5.0). The flow rate was set to 5 μL/min, flowpath 3. Fifty μL NHS and 50 μL EDC were mixed and injected for 420 sec to activate the chip surface. The diluted antibody was injected for 420 sec. 1 M ethanolamine was injected for 420 sec. Flow path was switched to flowpath 4. A new EDC/NHS mixture was prepared and the procedure was repeated for flow cell 4. The surface was conditioned by 2 injections of 30 sec using flowpath 3, 4 at 30 μL/min of 10 mM glycine, pH 1.7.
Binding of humanized and mouse antibodies were analyzed by surface plasmon resonance (BIAcore™) to determine their relative association rates (kₐ), dissociation rates (kd), and equilibrium binding constants (KD). Anti-mouse or anti-human antibodies were immobilized on a CM5 chip and sample mAbs were captured on the chip. 2N4R Tau was flowed over the chip and binding observed. The binding constants kₐ, kd, and KD were determined using a 1:1 Langmuir fitting model.
For the molecule B1, the Kd came to 0.202 nM, the koff was 0.000519 s⁻¹ and the kon is 2.57e+06 M⁻¹ s⁻¹.
In the same order, the values of B2 are 0.11 nM, 0.000241 s⁻¹ and 2.2e+06 M⁻¹ s⁻¹.
In the same order, the values of B3 are 0.12 nM, 0.000227 s⁻¹ and 1.9e+06 M⁻¹ s⁻¹.
In the case of B4, the Kd turned out to be 0.226 nM, the koff came to 0.00064 s⁻¹ and the kon was 2.83e+06 M⁻¹ s⁻¹.
The matching figures for B5: 0.0828 nM, 0.000298 s⁻¹ and 3.6e+06 M⁻¹ s⁻¹.
The matching figures for B6: 0.121 nM, 0.000242 s⁻¹ and 2e+06 M⁻¹ s⁻¹.
The matching figures for B7: 0.101 nM, 0.000214 s⁻¹ and 2.12e+06 M⁻¹ s⁻¹.
Regarding B8, the Kd amounted to 0.237 nM, the koff turned out to be 0.000847 s⁻¹ and the kon was found to be 3.57e+06 M⁻¹ s⁻¹.
In the same order, the values of B9 are 0.0968 nM, 0.000304 s⁻¹ and 3.14e+06 M⁻¹ s⁻¹.
The matching figures for B10: 0.121 nM, 0.000242 s⁻¹ and 2e+06 M⁻¹ s⁻¹.
In the same order, the values of B11 are 0.309 nM, 0.000856 s⁻¹ and 2.77e+06 M⁻¹ s⁻¹.
As to B12, the Kd is 0.0961 nM, the off-rate (koff) is 0.000206 s⁻¹ and the kon worked out at 2.14e+06 M⁻¹ s⁻¹.
In the same order, the values of B13 are 0.127 nM, 0.000237 s⁻¹ and 1.86e+06 M⁻¹ s⁻¹.

One may read the Kd as the free concentration of one partner at which half of the binding sites on the other are occupied at equilibrium, for simple one-to-one binding. The koff is the rate constant with which the complex falls apart. Broadly, the kon is a measure of how fast the partners come together.
